Kd data for three substances are collected here from paper PMC12262051.

In the experiment the target is JASPer protein (1-475) (Drosophila). Description: MST; label-free (Monolith NT.LabelFree); JASPer constant at 0.4 uM, reconstituted nucleosomes in a 16-step dilution series (0.5 nM up to 16 uM); 20 mM HEPES pH 7.5, 50 mM NaCl, 1 mM TCEP, 0.05% Tween 20; 24 C; fitted as specific binding with Hill slope.
In general, Kd refers to the free concentration of one partner at which half of the binding sites on the other are occupied at equilibrium, for simple one-to-one binding. In turn, “H3K36me3 mononucleosome (147 bp) (complex)” came in with a Kd of 600 nM.
In the case of “unmodified mononucleosome (147 bp, H3K36me0) (complex)” it was 4000 nM; in that of “H3K36me2 mononucleosome (147 bp) (complex)”, 320 nM.
